The chains are these.
B1: E3 ubiquitin-protein ligase COP1 (Arabidopsis thaliana (Mouse-ear cress)), P43254 (parent)
chain: MEEISTDPVVPAVKPDPRTSSVGEGANRHENDDGGSGGSEIGAPDLDKDLLCPICMQIIKDAFLTACGHSFCYMCIITHLRNKSDCPCCSQHLTNNQLYPNFLLDKLLKKTSARHVSKTASPLDQFREALQRGCDVSIKEVDNLLTLLAERKRKMEQEEAERNMQILLDFLHCLRKQKVDELNEVQTDLQYIKEDINAVERHRIDLYRARDRYSVKLRMLGDDPSTRNAWPHEKNQIGFNSNSLSIRGGNFVGNYQNKKVEGKAQGSSHGLPKKDALSGSDSQSLNQSTVSMARKKRIHAQFNDLQECYLQKRRQLADQPNSKQENDKSVVRREGYSNGLADFQSVLTTFTRYSRLRVIAEIRHGDIFHSANIVSSIEFDRDDELFATAGVSRCIKVFDFSSVVNEPADMQCPIVEMSTRSKLSCLSWNKHEKNHIASSDYEGIVTVWDVTTRQSLMEYEEHEKRAWSVDFSRTEPSMLVSGSDDCKVKVWCTRQEASVINIDMKANICCVKYNPGSSNYIAVGSADHHIHYYDLRNISQPLHVFSGHKKAVSYVKFLSNNELASASTDSTLRLWDVKDNLPVRTFRGHTNEKNFVGLTVNSEYLACGSETNEVYVYHKEITRPVTSHRFGSPDMDDAEEEAGSYFISAVCWKSDSPTMLTANSQGTIKVLVLAA
B2: Cryptochrome-1 (Arabidopsis thaliana (Mouse-ear cress)), Q43125 (parent)
chain: MSGSVSGCGSGGCSIVWFRRDLRVEDNPALAAAVRAGPVIALFVWAPEEEGHYHPGRVSRWWLKNSLAQLDSSLRSLGTCLITKRSTDSVASLLDVVKSTGASQIFFNHLYDPLSLVRDHRAKDVLTAQGIAVRSFNADLLYEPWEVTDELGRPFSMFAAFWERCLSMPYDPESPLLPPKKIISGDVSKCVADPLVFEDDSEKGSNALLARAWSPGWSNGDKALTTFINGPLLEYSKNRRKADSATTSFLSPHLHFGEVSVRKVFHLVRIKQVAWANEGNEAGEESVNLFLKSIGLREYSRYISFNHPYSHERPLLGHLKFFPWAVDENYFKAWRQGRTGYPLVDAGMRELWATGWLHDRIRVVVSSFFVKVLQLPWRWGMKYFWDTLLDADLESDALGWQYITGTLPDSREFDRIDNPQFEGYKFDPNGEYVRRWLPELSRLPTDWIHHPWNAPESVLQAAGIELGSNYPLPIVGLDEAKARLHEALSQMWQLEAASRAAIENGSEEGLGDSAEVEEAPIEFPRDITMEETEPTRLNPNRRYEDQMVPSITSSLIRPEEDEESSLNLRNSVGDSRAEVPRNMVNTNQAQQRRAEPASNQVTAMIPEFNIRIVAESTEDSTAESSSSGRRERSGGIVPEWSPGYSEQFPSEENGIGGGSTTSSYLQNHHEILNWRRLSQTG
partner: B1 chain

In one assay the parent is B1. The settings on record: with cry1_arath CRY1, Q43125.
On to R465E, for which the “effect of a mutation on the interaction” value is given as “decreasing interaction”.
Regarding K550E, the “effect of a mutation on the interaction” value is “decreasing interaction”.
Same read-out and setting: the value for W467A was “decreasing interaction”.
Same read-out and setting: the value for G524E was “decreasing interaction”; that for K422E was “decreasing interaction”.
For E592R, the “effect of a mutation on the interaction” value is “decreasing interaction”.

The variants in another assay derive from B2. The settings on record: with cop1_arath COP1, P43254.
Regarding R581K, the “effect of a mutation on the interaction” value was “decreasing interaction”.
With E531K, the “effect of a mutation on the interaction” value is recorded as “decreasing interaction”.
On the same count and under the same terms, to E515K belongs “decreasing interaction”; to R576K, “decreasing interaction”; to R611K, “decreasing interaction”.
Still for that read-out and setting: to E559K belongs “disrupting interaction”; to P549L, “decreasing interaction”.

Values taken from IntAct's records for PubMed 11752373.
